Experimental findings from article PMC11167000 (2024) are described below.

No end group written: not given here.

The target in test [1] is T1, human BMP2 (human, UniProt P12643 283-396).
T1 chain: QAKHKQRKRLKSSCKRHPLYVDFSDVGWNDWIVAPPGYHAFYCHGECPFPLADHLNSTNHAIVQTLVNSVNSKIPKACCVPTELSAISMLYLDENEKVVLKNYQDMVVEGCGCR
The test can be described thus: SPR; Ca; replicate 1.

Test [2] deals with T2, human Growth Differentiation Factor 5 (GDF5, A382–R501) (human, UniProt P43026 382-501).
T2 chain: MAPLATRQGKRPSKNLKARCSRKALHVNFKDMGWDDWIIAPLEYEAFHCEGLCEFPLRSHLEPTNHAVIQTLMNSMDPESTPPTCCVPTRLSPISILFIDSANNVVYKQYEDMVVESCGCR
Kind of test: SPR; Ca; replicate 1.

For test [3], the target named is T1, human BMP2. Kind of test: SPR; Ca; replicate 2.
In test [4] the target is T3, human BMP7 (human, UniProt P18075 293-431).
T3 chain: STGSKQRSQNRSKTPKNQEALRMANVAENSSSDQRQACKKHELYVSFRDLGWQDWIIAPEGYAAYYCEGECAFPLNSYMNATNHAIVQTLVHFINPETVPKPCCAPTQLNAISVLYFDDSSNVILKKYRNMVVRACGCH
Kind of test: SPR; Ca; replicate 1.

Test [5] concerns the target T3, human BMP7. The test can be described thus: SPR; Ca; replicate 2.
Test [6] concerns the target T2, human Growth Differentiation Factor 5 …. Kind of test: SPR; Ca; replicate 2.
The target of test [7] is T3, human BMP7. Kind of test: SPR; 2 mM CaCl2; replicate 1.
The target of test [8] is T1, human BMP2. Kind of test: SPR; 2 mM CaCl2; replicate 1.
Test [9] addresses T2, human Growth Differentiation Factor 5 …. Kind of test: SPR; 2 mM CaCl2; replicate 1.
Test [10] concerns the target T3, human BMP7. Kind of test: SPR; 2 mM EDTA; replicate 2.
For test [11], the target named is T1, human BMP2. The test can be described thus: SPR; 2 mM EDTA; replicate 2.
Test [12] has as its target T2, human Growth Differentiation Factor 5 …. Kind of test: SPR; 2 mM EDTA; replicate 2.
In test [13] the target is T3, human BMP7. The test can be described thus: SPR; 2 mM CaCl2; replicate 2.
Test [14] addresses T1, human BMP2. The test can be described thus: SPR; 2 mM CaCl2; replicate 2.
In test [15] the target is T2, human Growth Differentiation Factor 5 …. Kind of test: SPR; 2 mM CaCl2; replicate 2.
Test [16] deals with T3, human BMP7. The test can be described thus: SPR; 2 mM EDTA; replicate 1.
In test [17] the target is T1, human BMP2. Kind of test: SPR; 2 mM EDTA; replicate 1.
In test [18] the target is T2, human Growth Differentiation Factor 5 …. The test can be described thus: SPR; 2 mM EDTA; replicate 1.

B1: TWSG1 NTD Asp34Ala (protein)
chain: CNKALCASAVSKCLIQELCQCRPGEGNCSCCKECMLCLGALWDECCDCVGMCNPRNYS
modifications: disulfide (positions not given here); also: 7 disulfides in NTD, pairing not given here
With B1, the Kd in test [1] is 0.943 µM; in test [2], 0.121 µM; in [3], 0.771 µM; in test [4] it was 0.247 µM; in [5] it was 0.557 µM; in [6], 0.0606 µM.

B2: BMPR1B (receptor)
chain: KKEDGESTAPTPRPKVLRCKCHHHCPEDSVNNICSTDGYCFTMIEEDDSGLPVVTSGCLGLEGSDFQCRDTPIPHQRRSIECCTERNECNKDLHPTLPPLKNRDFVDGPIHHR
With B2, the Kd in test [7] worked out at 2.94 µM; in test [8], 2.12 µM; in [9], 4.55 µM; in test [10], 12.8 µM; in [11], 9.54 µM; in [12] it was 4.01 µM. Moreover, the equilibrium dissociation constant (Kd) is 5.74 µM in test [13]; 1.65 µM in test [14]; 2.84 µM in test [15]; 13.5 µM in test [16]; 8.14 µM in test [17]; 4.72 µM in [18].
